According to PMC10503415:

Columns and labels:
[1] = molecular target: DhmeA^ΔGG (Haloferax mediterranei); test: crystal structure; DhmeA^ΔGG 12-14 mg/mL; sitting drop at 10°C; 0.1 M MES/imidazole pH 6.5, 0.1 M amino acids, 10% PEG 4,000, 20% glycerol; 3.3 Å
[2] = molecular target: full-length wild-type DhmeA from pnEA/3CH-dhmeA, His6 tag removed with 3C protease (Haloferax mediterranei); test: dynamic light scattering; wild-type DhmeA 1 mg/mL in 1 M NaCl, 10 mM Tris pH 8.0, 0.5 mM TCEP; Delsa Max Core
[3] = molecular target: full-length wild-type DhmeA from pnEA/3CH-dhmeA, His6 tag removed with 3C protease (Haloferax mediterranei); test: cryo-EM structure; full-length DhmeA 0.035 mg/mL on Quantifoil grids; data collected at 0° and 44° stage tilt on a Titan Krios; 7-8 Å

## DhmeA^ΔGG (enzyme)
[1]
  stoichiometry N: 20

## full-length wild-type DhmeA from pnEA/3CH-dhmeA, His6 tag removed with 3C protease (enzyme)
[2]
  stoichiometry N: 4
[3]
  stoichiometry N: 6
